{
  "source": "patent US20090239800A1",
  "about": "(GEORGIA TECH RESEARCH CORPORARION, published 2009)",
  "key": {"rabbit ClC-2 [1]": {"biological_target": "T1, rabbit ClC-2 (rabbit, UniProt P51789 1-898)", "T1 construct": "whole, on cells; Voltage-gated chloride channel recorded in whole oocytes (TEVC) or in excised inside-out patches; also called ClC-2 channel", "T1 sequence (looked up)": "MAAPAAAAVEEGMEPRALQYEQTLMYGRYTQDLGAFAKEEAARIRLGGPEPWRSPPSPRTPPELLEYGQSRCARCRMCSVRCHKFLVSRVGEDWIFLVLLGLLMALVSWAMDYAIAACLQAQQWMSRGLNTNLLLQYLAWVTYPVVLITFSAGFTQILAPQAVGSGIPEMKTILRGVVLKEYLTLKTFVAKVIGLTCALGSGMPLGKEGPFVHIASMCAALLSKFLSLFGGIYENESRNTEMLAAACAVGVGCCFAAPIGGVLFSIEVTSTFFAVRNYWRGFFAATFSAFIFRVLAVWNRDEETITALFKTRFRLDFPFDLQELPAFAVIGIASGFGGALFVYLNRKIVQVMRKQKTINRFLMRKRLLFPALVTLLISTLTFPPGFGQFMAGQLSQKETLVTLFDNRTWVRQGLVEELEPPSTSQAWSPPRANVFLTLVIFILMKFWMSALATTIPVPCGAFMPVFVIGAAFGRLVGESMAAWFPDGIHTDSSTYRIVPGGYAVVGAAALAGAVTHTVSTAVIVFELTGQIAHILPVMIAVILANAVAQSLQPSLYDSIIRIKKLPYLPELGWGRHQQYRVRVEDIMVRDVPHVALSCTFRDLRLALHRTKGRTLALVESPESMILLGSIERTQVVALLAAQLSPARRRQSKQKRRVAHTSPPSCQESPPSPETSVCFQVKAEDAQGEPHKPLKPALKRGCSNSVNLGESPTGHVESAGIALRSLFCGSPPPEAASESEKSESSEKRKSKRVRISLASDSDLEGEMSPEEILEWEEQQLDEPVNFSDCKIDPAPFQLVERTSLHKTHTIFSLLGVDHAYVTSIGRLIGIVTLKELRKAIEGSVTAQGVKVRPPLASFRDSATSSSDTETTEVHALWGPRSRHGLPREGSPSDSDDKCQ", "assay": "dose-response of inhibition of ClC-2 window current, inside-out multi-channel patches, synthetic toxin backfilled in the pipette, VM=-100 mV (FIG. 3B)"}, "rabbit ClC-2 [2]": {"biological_target": "T1, rabbit ClC-2", "assay": "cell-based or functional assay"}, "ClC-1": {"biological_target": "ClC-1", "assay": "cell-based or functional assay"}},
  "note": "No end group written: not given here.",
  "data": [
    {"binder": "VSCEDCPDHCSTQKARAKCDNDKCVCEPI (disulfide (positions not given here), also called Leiuropeptide II; LPII)", "note": "[GaTx2]", "values": [
      {"measurement": "Kd", "setting": "rabbit ClC-2 [1]", "result": 0.012, "unit": "nM"},
      {"measurement": "latency to first opening upon stepping from VM 0 to -100 mV, 20 pM GaTx2", "setting": "rabbit ClC-2 [2]", "result": 7.67, "unit": "fold increase"},
      {"measurement": "ClC-1 tail currents at VM=-120 mV from +60 mV, 10 nM GaTx2 against after washout of toxin", "setting": "ClC-1", "result": 1.04, "unit": "fold"}
    ]}
  ]
}
